Patent publication US20030004318A1

What was measured:
[1] = target: tumor-associated glycoprotein TAG-72 (human); assay: ELISA on TAG-72-coated plates (FIGS. 7 and 8)
[2] = target: tumor-associated glycoprotein TAG-72 (human); assay: TAG-72-coated plate assay with 125I goat anti-human IgG probe, Scatchard analysis; mean of 8 analyses

Substance: humanized CC49 antibody CC49 HuVH/HuVK (ATCC CRL-12209)
- fold less binding than the chimeric MuVH/MuVK antibody [1]: 2 fold
- Ka [2]: 4.27e+09 M⁻¹
